# Measurements reported in patent US9201073B2, “Methods and compositions for enhancing proteasome activity” (President and Fellows of Harvard College, priority 2007, dated 2015).
# Experiments:
# [1] = biological target: T1, ubp6Δ proteasomes (Saccharomyces cerevisiae, UniProt P30656+P43588); assay: In vitro ub-cyclin B deubiquitination/degradation assay with purified yeast proteasomes; assay type: biochemical; settings: for inhibition of cyclin B degradation: ubp6Δ proteasomes 135 nM, recombinant Ubp6 or Usp14 species 540 nM, Ubl and Ubl-MBP 1.35 μM, preincubated 5 min, immunoblot
# T1 construct: proteasomes purified from ubp6Δ mutants; TEV-ProA (TEV site + protein A), chromosomally integrated (C); made in house
# Experimental: Proteasomes (135 nM) were incubated with ub-cyclin Bin the presence of 1 mM ATP and buffer (50 mM Tris [pH 7.51, 1 mM EDTA, 5 mM MgCl2) for the indicated times. Reactions were terminated by the addition of 5×SDS Laemmli loading buffer (Leggett, et al. (2002). Multiple associated proteins regulate proteasome structure and function. Mol. Cell. 10, 495-507) and boiled for 5 min. Where indicated, recombinant, purified Ubp6 or Usp14 species (540 nM) were preincubated with proteasomes for 5 min prior to the reaction. […] Unless otherwise noted, immunoblots were visualized with anti-cyclin B1 polyclonal antibodies. Polyclonal antibodies recognizing Ubp6, Rpn5, Rpn12, and ubiquitin were used as indicated. Ub-cyclin B was added in molar excess over proteasome, generally on the order of 25-fold, except for FIGS. 4C, 6A and 6B, where the substrate:enzyme ratio was increased by a factor of five.
# In the experiments of FIGS. 1, 4 (except FIG. 4C), and 6C, time points were sampled after the preparation of a single reaction mixture. The zero time points therefore reflect a lag which represents the amount of time required to sample the first time point after having prepared the reaction mixture. […] In the experiments of FIGS. 2, 4C, and 6 (except 6C), each time point was carried out as an independent reaction. The zero time points were prepared in the presence of 5×LLB, and accordingly, no processing could occur before time zero.
# Ubiquitination of cyclin B was carried out. Briefly, for each 30 μl reaction, Anaphase Promoting Complex (APC) was immunopurified from 600 μl of mitotic Xenopus egg extract with 12 μg of anti-Cdc27 antibodies (AF3.1, Santa Cruz Biotechnologies, Santa Cruz, Calif.) bound to 30 μl of Affiprep Protein A beads (Bio-Rad, Hercules, Calif.). Beads were washed three times with XB high salt (10 mM potassium HEPES pH 7.7, 500 mM KCl, 0.1 mM CaCl2, 1 mM MgCl2), two times with XB (same but with 100 mM KCl), and then three times into the reaction buffer (20 mM Tris pH 7.5, 100 mM KCl, 2.5 mM MgCl2, 2 mM ATP). Ubiquitination reactions contained immunoprecipitated APC on 30 μl of beads, and 30 μl of a mix containing recombinant MBP-human E1 at 200 μg/ml, histidine-tagged Ubc4 at 66 μg/ml, ubiquitin at 1.25 mg/ml, and 50 μg/ml of histidine-tagged cyclin B1/cdc2 complex expressed in baculovirus. Reactions were incubated for 90 minutes at 22° C. with agitation on a shaker at 1,000 RPM. Reaction supernatants were combined with the eluate from the wash of beads with 20 μl of reaction buffer. Reactions were either used fresh after preparation or frozen at −80° C. until use with purified proteasomes.
# [2] = biological target: T2, proteasomes (Saccharomyces cerevisiae, UniProt P30656+P43588); assay: Proteasome-dependent hydrolysis of suc-LLVY-AMC; assay type: biochemical, yeast; settings: o-PA treatment
# T2 construct: A previously described procedure for purification of the proteasome; TEV-ProA (TEV site + protein A), chromosomally integrated (C); made in house
# Description: FIG. 1E is a graph depicting proteasome-dependent hydrolysis of suc-LLVY-AMC (SEQ ID NO: 1), a ubiquitin-independent fluorogenic proteasome substrate. Error bars reflect standard deviations.
# The next studies were designed to determine whether the observed difference in cyclin B degradation was due specifically to Ubp6. Proteasomes were examined by Coomassie blue staining (FIG. 1D) and native gel electrophoresis, and no evidence for either an unexpected compositional difference or a gross structural abnormality in mutant proteasomes was found (see also Guterman and Glickman. (2004). Complementary roles for Rpn11 and Ubp6 in deubiquitination and proteolysis by the proteasome. J. Biol. Chem. 279, 1729-1738).
# [3] = biological target: T3, Ubp6 (Saccharomyces cerevisiae, UniProt P43593); assay: Ub-AMC hydrolysis by Ubp6 treated with ubiquitin-vinyl sulfone; assay type: biochemical, yeast; settings: Ub-VS 2.5 μM; Ub-AMC 0.5 μM
# T3 construct: GST (N, cleaved yes); made in house; host or cells: bacteria (pGEX-4T-1, plasmid pDL74)
# T3 sequence (P43593 1-499): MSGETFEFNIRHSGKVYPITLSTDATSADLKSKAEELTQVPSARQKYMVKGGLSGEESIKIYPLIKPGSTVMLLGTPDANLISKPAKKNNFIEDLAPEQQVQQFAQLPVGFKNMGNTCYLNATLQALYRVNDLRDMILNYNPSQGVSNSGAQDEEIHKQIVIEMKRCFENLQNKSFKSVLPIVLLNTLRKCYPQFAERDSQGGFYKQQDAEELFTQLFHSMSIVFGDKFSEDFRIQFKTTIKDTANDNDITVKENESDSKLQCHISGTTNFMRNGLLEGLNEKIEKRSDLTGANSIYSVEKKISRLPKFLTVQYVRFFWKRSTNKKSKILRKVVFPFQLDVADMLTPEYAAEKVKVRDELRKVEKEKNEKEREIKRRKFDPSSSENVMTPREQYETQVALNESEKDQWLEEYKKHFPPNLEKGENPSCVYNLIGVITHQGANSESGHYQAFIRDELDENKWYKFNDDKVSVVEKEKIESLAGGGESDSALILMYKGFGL
# Experimental: FIG. 9A depicts the result of an in vitro ub-cyclin B assay carried out with ubp6Δ proteasomes (135 nM) supplemented with wild-type Ubp6 (540 nM) and ubiquitinvinyl sulfone (2.5 μM), as indicated. The lower panel is anti-Ubp6 immunoblot showing modification of Ubp6 by Ub-VS. Ubp6 was present in four-fold molar excess over proteasome, and thus only a fraction of Ubp6 protein was modified.
# FIG. 9B depicts the results of Ub-AMC (0.5 μM) hydroylsis assay.
# As an alternate approach to assay non-catalytic inhibition, ubiquitin-vinyl sulfone (Ub-VS), an irreversible active site inhibitor of Ubp6, was used. Residual Ub-AMC hyrdolyzing activity in the presence of Ubp6-Ub-VS is at the level of background in this assay. […] Indeed the large excess of substrate over Ubp6 (see Methods described in Example 1) is inconsistent with a model in which Ubp6 inhibits degradation by sequestering substrate. […] Although these functions are distinct, each requires both the Ubl domain and the C-terminal domain. The Ubl domain serves in both cases to target Ubp6 to the proteasome, and that both functions are obligatorily executed on the proteasome.
# [4] = biological target: T1, ubp6Δ proteasomes; assay: Quantitation of proteasome inhibition by quantitative mass spectrometry of cyclin B; assay type: biochemical, yeast; settings: 20-minute incubation
# Experimental: A standard substrate degradation assay was carried out, and analyzed in parallel by SDS-PAGE followed by Coomassie blue staining and immunoblot with anti-cyclin B antibody. Immunoblots were used to identify and excise the cyclin B-containing regions of the Coomassie-stained gel, and the lanes were analyzed by mass spectrometry.
# To quantify the extent of proteasome inhibition by Ubp6, a method of quantitative mass spectrometry was utilized. After a 20-minute incubation, approximately half of the total cyclin B was degraded by ubp6Δ proteasomes (FIG. 4C).
# [5] = test system: Ub-AMC; assay: Ub-AMC hydrolyzing activity of purified recombinant Ubp6 species; assay type: biochemical; settings: purified recombinant enzyme 0.5 μM
# Experimental: FIG. 8 is a graph depicting that the Ubp6-C118A mutant lacks deubiquitinating activity. Ub-AMC hydrolyzing activity of purified recombinant wild-type Ubp6 or Ubp6-C118A (0.5 μM). Ub-AMC, no enzyme control.
# [6] = biological target: T4, RP purified from a ubp6Δ mutant (Saccharomyces cerevisiae, UniProt P43588); assay: Processing of ub-cyclin B by regulatory particle (RP); assay type: biochemical, yeast; settings: RP 135 nM, four-fold molar excess of Ubp6 species
# T4 construct: TEV-ProA (TEV site + protein A), chromosomally integrated (C); made in house
# Experimental: FIGS. 6A and 6B depict the processing of ub-cyclin B by RP (ubp6Δ) in the presence or absence of purified Ubp6. Reactions were visualized by immunoblotting with anti-cyclin B antibody or anti-ubiquitin antibody, as indicated.
# FIG. 12 is an illustration depicting the RP-mediated disassembly of Ub-cyclin B conjugates by Ubp6. Proteasome regulatory particle (135 nM) purified from a ubp6Δ strain was combined with a four-fold molar excess of Ubp6, Ubp6-ublΔ, or Ubp6-C118A, and Ub-Cyclin B, and incubated for the indicated times. Reactions were visualized by immunoblot with anti-ubiquitin antibody. *represents a non-ubiquitin immunoreactive band.
# A previously described procedure for purification of the proteasome (Leggett, et al. (2002). Multiple associated proteins regulate proteasome structure and function. Mol. Cell. 10, 495-507) was modified by adding 1 mM ATP and 5 mM MgCl2 to all purification buffers, and by washing resins with 100 bed vol. of buffer containing 50 mM NaCl, as opposed to 50 bed vol. of buffer containing 100 mM NaCl. RP was purified in the presence of ATP and MgCl2 as described (Leggett et al., 2002).
# Proteasomes (135 nM) were incubated with ub-cyclin Bin the presence of 1 mM ATP and buffer (50 mM Tris [pH 7.51, 1 mM EDTA, 5 mM MgCl2) for the indicated times. […]
# [7] = biological target: T5, proteasome (Saccharomyces cerevisiae, UniProt P30656+P43588); assay: Ub-Cdc34 binding assay (electrophoretic mobility shift of proteasome); set-up: species or system yeast; settings: proteasome 4 pmoles, ub-Cdc34 8 pmoles, Ubp6-C118A 8 pmoles
# T5 construct: A previously described procedure for purification of the proteasome; TEV-ProA (TEV site + protein A), chromosomally integrated (C); made in house
# Experimental: Binding of ubiquitinated-Cdc34 (8 pmoles) to proteasome (4 pmoles) was carried by native gel electrophoresis followed by overlay of the fluorogenic activity-based probe, suc-LLVY-AMC (SEQ ID NO: 1), as previously described (Elsasser, et al. (2004). Rad23 and Rpn10 serve as alternative ubiquitin receptors for the proteasome. J. Biol. Chem. 279, 26817-26822). Ubp6 or Ubp6-C118A (8 pmoles) were preincubated with proteasomes prior to substrate addition.
molecule,measurement,setting,value
"c1cnc2c(c1)ccc1cccnc12 [o-PA, o-phenanthroline, reference compound]",deubiquitination and degradation of cyclin B,"[1]; ubp6Δ proteasomes, o-PA 10 mM added 10 min prior to cyclin B",strongly inhibited
same,LLVY-hydrolysis by proteasomes,[2],no effect
ubiquitin-vinyl sulfone [Ub-VS],catalytic activity of wild-type Ubp6 as measured by Ub-AMC hydrolysis,[3],completely eliminated
Ubl: N-terminal ubiquitin-like domain of Ubp6 by itself (protein) MSGETFEFNIRHSGKVYPITLSTDATSADLKSKAEELTQVPSARQKYMVKGGLSGEESIKIYPLIKPGSTVMLLGTPDANLIS,inhibition of cyclin B degradation,[1],no effect on cyclin B degradation
Ubp6-C118A: catalytically inactive point mutant of Ubp6 (protein) MSGETFEFNIRHSGKVYPITLSTDATSADLKSKAEELTQVPSARQKYMVKGGLSGEESIKIYPLIKPGSTVMLLGTPDANLISKPAKKNNFIEDLAPEQQVQQFAQLPVGFKNMGNTAYLNATLQALYRVNDLRDMILNYNPSQGVSNSGAQDEEIHKQIVIEMKRCFENLQNKSFKSVLPIVLLNTLRKCYPQFAERDSQGGFYKQQDAEELFTQLFHSMSIVFGDKFSEDFRIQFKTTIKDTANDNDITVKENESDSKLQCHISGTTNFMRNGLLEGLNEKIEKRSDLTGANSIYSVEKKISRLPKFLTVQYVRFFWKRSTNKKSKILRKVVFPFQLDVADMLTPEYAAEKVKVRDELRKVEKEKNEKEREIKRRKFDPSSSENVMTPREQYETQVALNESEKDQWLEEYKKHFPPNLEKGENPSCVYNLIGVITHQGANSESGHYQAFIRDELDENKWYKFNDDKVSVVEKEKIESLAGGGESDSALILMYKGFGL,inhibition of cyclin B degradation,[1],competent for inhibition
same,inhibition of degradation (cyclin B),[4],approximately 70%
same,deubiquitinating activity against the model substrate Ub-AMC,[5],completely devoid of deubiquitinating activity
same,processing of ub-cyclin B conjugates by RP,[6],no effect on substrate processing
same,conjugate (ubiquitinated Cdc34) binding to the proteasome,[7],comparable conjugate binding
